Assay results reported in patent US20230340151A1 (Pfizer, published 2023).

Columns and labels:
Assay in all cases: flow cytometry on cells displaying the construct
[1] = biological target: CID1873 (human GUCY2c patch mutant) (human/chicken)
[2] = biological target: T1, CID1879 (human-chicken GUCY2c chimera) (human/chicken)
T1 chain: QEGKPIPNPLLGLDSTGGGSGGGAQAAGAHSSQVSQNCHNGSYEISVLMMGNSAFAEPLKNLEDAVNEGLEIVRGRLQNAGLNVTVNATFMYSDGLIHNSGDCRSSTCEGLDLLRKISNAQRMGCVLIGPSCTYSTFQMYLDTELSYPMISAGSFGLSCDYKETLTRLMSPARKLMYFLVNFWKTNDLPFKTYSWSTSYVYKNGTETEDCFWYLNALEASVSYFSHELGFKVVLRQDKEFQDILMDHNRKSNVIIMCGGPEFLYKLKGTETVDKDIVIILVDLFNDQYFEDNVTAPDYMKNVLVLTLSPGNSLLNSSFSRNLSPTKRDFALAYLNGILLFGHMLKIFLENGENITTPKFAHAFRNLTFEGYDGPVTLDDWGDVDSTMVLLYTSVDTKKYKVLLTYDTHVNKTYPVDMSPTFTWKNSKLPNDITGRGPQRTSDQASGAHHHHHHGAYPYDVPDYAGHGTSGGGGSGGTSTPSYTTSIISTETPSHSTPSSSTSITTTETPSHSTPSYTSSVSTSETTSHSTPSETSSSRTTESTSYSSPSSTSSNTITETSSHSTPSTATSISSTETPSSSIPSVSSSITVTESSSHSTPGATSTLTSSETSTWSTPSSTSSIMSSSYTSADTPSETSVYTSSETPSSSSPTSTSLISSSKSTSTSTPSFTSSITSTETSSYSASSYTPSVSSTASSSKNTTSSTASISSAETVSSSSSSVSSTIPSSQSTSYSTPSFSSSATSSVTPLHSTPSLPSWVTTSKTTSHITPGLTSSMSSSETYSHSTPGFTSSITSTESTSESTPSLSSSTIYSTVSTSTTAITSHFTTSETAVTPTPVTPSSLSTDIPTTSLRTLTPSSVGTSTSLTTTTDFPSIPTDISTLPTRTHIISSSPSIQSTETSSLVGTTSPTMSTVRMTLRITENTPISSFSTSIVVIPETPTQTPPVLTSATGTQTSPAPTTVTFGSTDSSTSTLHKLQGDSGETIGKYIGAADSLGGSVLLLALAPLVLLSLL

[3] = biological target: T2, CID1939 (reverse chimera, chicken GUCY2c with human residues) (chicken/human)
T2 chain: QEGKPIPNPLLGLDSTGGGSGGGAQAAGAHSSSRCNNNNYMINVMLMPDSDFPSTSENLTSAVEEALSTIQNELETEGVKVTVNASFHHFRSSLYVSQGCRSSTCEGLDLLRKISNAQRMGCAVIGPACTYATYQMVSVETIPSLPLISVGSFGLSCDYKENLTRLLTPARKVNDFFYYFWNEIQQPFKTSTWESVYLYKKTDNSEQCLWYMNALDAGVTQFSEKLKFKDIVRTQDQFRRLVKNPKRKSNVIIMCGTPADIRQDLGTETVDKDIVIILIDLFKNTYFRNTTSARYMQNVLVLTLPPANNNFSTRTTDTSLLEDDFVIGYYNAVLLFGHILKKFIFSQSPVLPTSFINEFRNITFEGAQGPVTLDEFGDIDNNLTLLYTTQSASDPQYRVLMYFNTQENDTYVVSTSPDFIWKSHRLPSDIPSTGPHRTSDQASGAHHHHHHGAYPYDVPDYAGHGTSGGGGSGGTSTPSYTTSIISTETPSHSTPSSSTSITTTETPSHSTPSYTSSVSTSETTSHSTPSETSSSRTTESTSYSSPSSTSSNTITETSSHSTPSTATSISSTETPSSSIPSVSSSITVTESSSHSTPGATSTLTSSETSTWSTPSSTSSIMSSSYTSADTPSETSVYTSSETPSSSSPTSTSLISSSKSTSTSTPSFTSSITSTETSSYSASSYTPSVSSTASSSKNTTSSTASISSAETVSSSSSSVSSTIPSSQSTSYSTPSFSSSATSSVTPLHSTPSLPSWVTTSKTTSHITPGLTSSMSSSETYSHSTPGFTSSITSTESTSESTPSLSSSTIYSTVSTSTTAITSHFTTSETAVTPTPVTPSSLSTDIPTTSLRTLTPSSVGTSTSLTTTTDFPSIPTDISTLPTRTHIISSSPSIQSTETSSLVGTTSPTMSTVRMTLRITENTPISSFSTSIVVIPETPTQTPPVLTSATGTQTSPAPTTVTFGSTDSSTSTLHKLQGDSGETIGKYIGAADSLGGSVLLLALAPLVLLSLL

[4] = biological target: CID1941 (human GUCY2c point mutant) (human)
[5] = biological target: CID1942 (human GUCY2c point mutant) (human)
[6] = biological target: CID1944 (human GUCY2c point mutant) (human)
[7] = biological target: CID1946 (human GUCY2c point mutant) (human)

Measured: binding result

B1: GUCY2C-1608 (bispecific antibody)
chain 1: DIQLTQSPSSLSASVGDRVTITCRASESVDYYGSSLLQWYQQKPGKAPKLLIYAASKLASGVPSRFSGSGSGTDFTLTISSLQPEDFATYYCQQTRKAYTFGQGTKLEIKGGGSGGGGEVQLVESGGGLVQPGGSLRLSCAASGFTFSDYYMTWVRQAPGKGLEWVAFIRNQARGYTSDHNPSVKGRFTISRDNAKNSLYLQMNSLRAEDTAVYYCARDRPSYYVLDYWGQGTTVTVSSGCPPCPAPEAAGAPSVFLFPPKPKDTLMISRTPEVTCVVVDVSHEDPEVKFNWYVDGVEVHNAKTKPREEQYNSTYRVVSVLTVLHQDWLNGKEYKCKVSNKALPAPIEKTISKAKGQPREPQVCTLPPSREEMTKNQVSLWCLVKGFYPSDIAVEWESNGQPENNYKTTPPVLDSDGSFFLYSKLTVDKSRWQQGNVFSCSVMHEALHNHYTQKSLSLSPG
chain 2: DIQMTQSPSSLSASVGDRVTITCTSSQSLFNVRSQKNYLAWYQQKPGKAPKLLIYWASTRESGVPSRFSGSGSGTDFTLTISSLQPEDFATYYCKQSYDLFTFGGGTKVEIKGGGGSGGGGEVQLVESGGGLVQPGGSLRLSCAASGFTFSSYWMHWVRQAPGKGLEWIGEIKPSNELTNVHEKFKDRFTISVDKAKNSAYLQMNSLRAEDTAVYYCTRTITTTEGYWFFDVWGQGTLVTVSSGCPPCPAPEAAGAPSVFLFPPKPKDTLMISRTPEVTCVVVDVSHEDPEVKFNWYVDGVEVHNAKTKPREEQYNSTYRVVSVLTVLHQDWLNGKEYKCKVSNKALPAPIEKTISKAKGQPREPQVYTLPPCREEMTKNQVSLSCAVKGFYPSDIAVEWESNGQPENNYKTTPPVLDSDGSFFLVSKLTVDKSRWQQGNVFSCSVMHEALHNHYTQKSLSLSPG
notes: also called GUCY2c CD3 bispecific
binds: all assays above
